These results are taken from patent US20190153112A1 (IMMUTEP S A S, published 2019).

Usually EC50 stands for the concentration giving half of the maximal effect. Low readings indicate an effect from little substance, high ones a need for much substance.

The target of test [1] is IMP321 (recombinant soluble human LAG-3Ig fusion protein) (human) (UniProt P18627). Put plainly: cell-based or functional assay.
The target in test [2] is human LAG-3 protein (Lymphocyte activation gene-3) on the cell surface (human) (UniProt P18627). The test is described as follows: flow cytometry on CD8+ cells of SEB-stimulated PBMCs (Donor 1); antibody 1.6 ng/ml.
Test [3] shares this target. The test is described as follows: flow cytometry on CD4+ cells of SEB-stimulated PBMCs (Donor 1); antibody 0.4 ng/ml. A general note: Flow cytometry measures light scatter and fluorescence of single cells or particles in a stream.
The target is the same in test [4]. The test is described as follows: flow cytometry on CD4+ cells of SEB-stimulated PBMCs (Donor 1); antibody 7 ng/ml.
Test [5] shares this target. Put plainly: flow cytometry on CD8+ cells of SEB-stimulated PBMCs (Donor 1); antibody 541 ng/ml.
Test [6] has the same target. Put plainly: flow cytometry on CD8+ cells of SEB-stimulated PBMCs (Donor 1); antibody 29 ng/ml.
Test [7] has the same target. Put plainly: flow cytometry on LAG-3-transfected CHO cells; antibody 2000 ng/ml.
Test [8] shares this target. Put plainly: flow cytometry on CD4+ cells of SEB-stimulated PBMCs (Donor 1); antibody 10000 ng/ml.
Test [9] shares this target. The test is described as follows: flow cytometry on CD4+ cells of SEB-stimulated PBMCs (Donor 1); antibody 1.6 ng/ml.
The target is the same in test [10]. The test is described as follows: flow cytometry on CD4+ cells of SEB-stimulated PBMCs (Donor 1); antibody 126 ng/ml.
Test [11] has the same target. Put plainly: flow cytometry on CD4+ cells of SEB-stimulated PBMCs (Donor 1); antibody 2326 ng/ml.
Test [12] deals with IMP321 (recombinant soluble human LAG-3Ig fusion protein) (human) (UniProt P18627). The test is described as follows: FACS, LAG-3Ig-Alexa 488 (1 µg/ml) pre-incubated with antibody 27 ng/ml, then bound to Raji (MHC class II+) cells.
Test [13] concerns the target human LAG-3 protein (Lymphocyte activation gene-3) on the cell surface (human) (UniProt P18627). Put plainly: flow cytometry on CD4+ cells of SEB-stimulated PBMCs (Donor 1); antibody 29 ng/ml.
Test [14] shares this target. Put plainly: flow cytometry on CD8+ cells of SEB-stimulated PBMCs (Donor 1); antibody 2326 ng/ml.
Test [15] shares this target. Put plainly: flow cytometry on LAG-3-transfected CHO cells; antibody 500 ng/ml.
For test [16] the target is unchanged. Put plainly: flow cytometry on CD8+ cells of SEB-stimulated PBMCs (Donor 1); antibody 10000 ng/ml.
Test [17] deals with IMP321 (recombinant soluble human LAG-3Ig fusion protein) (human) (UniProt P18627). The test is described as follows: FACS, LAG-3Ig-Alexa 488 (1 µg/ml) pre-incubated with antibody 11000 ng/ml, then bound to Raji (MHC class II+) cells.
Test [18] addresses human LAG-3 protein (Lymphocyte activation gene-3) on the cell surface (human) (UniProt P18627). The test is described as follows: flow cytometry on LAG-3-transfected CHO cells; antibody 0 ng/ml (no-antibody background).
For test [19] the target is unchanged. Put plainly: flow cytometry on CD4+ cells of SEB-stimulated PBMCs (Donor 1); antibody 0 ng/ml (no-antibody background).
For test [20], the target named is IMP321 (recombinant soluble human LAG-3Ig fusion protein) (human) (UniProt P18627). The test is described as follows: FACS, LAG-3Ig-Alexa 488 (1 µg/ml) pre-incubated with antibody 89 ng/ml, then bound to Raji (MHC class II+) cells.
Test [21] shares this target. The test is described as follows: FACS, LAG-3Ig-Alexa 488 (1 µg/ml) pre-incubated with antibody 990 ng/ml, then bound to Raji (MHC class II+) cells.
Test [22] has the same target. The test is described as follows: FACS, LAG-3Ig-Alexa 488 (1 µg/ml) pre-incubated with antibody 297 ng/ml, then bound to Raji (MHC class II+) cells.
Test [23] concerns the target human LAG-3 protein (Lymphocyte activation gene-3) on the cell surface (human) (UniProt P18627). Put plainly: flow cytometry on LAG-3-transfected CHO cells; antibody 10000 ng/ml.
Test [24] shares this target. The test is described as follows: flow cytometry on CD8+ cells of SEB-stimulated PBMCs (Donor 1); antibody 0 ng/ml (no-antibody background).
The target in test [25] is IMP321 (recombinant soluble human LAG-3Ig fusion protein) (human) (UniProt P18627). The test is described as follows: FACS, LAG-3Ig-Alexa 488 (1 µg/ml) pre-incubated with antibody 3300 ng/ml, then bound to Raji (MHC class II+) cells.
The target of test [26] is human LAG-3 protein (Lymphocyte activation gene-3) on the cell surface (human) (UniProt P18627). The test is described as follows: flow cytometry on CD4+ cells of SEB-stimulated PBMCs (Donor 1); antibody 541 ng/ml.
The target is the same in test [27]. Put plainly: flow cytometry on CD8+ cells of SEB-stimulated PBMCs (Donor 1); antibody 126 ng/ml.
Test [28] shares this target. Put plainly: flow cytometry on CD8+ cells of SEB-stimulated PBMCs (Donor 1); antibody 0.4 ng/ml.
Test [29] shares this target. The test is described as follows: flow cytometry on CD8+ cells of SEB-stimulated PBMCs (Donor 1); antibody 7 ng/ml.
Test [30] concerns the target IMP321 (recombinant soluble human LAG-3Ig fusion protein) (human) (UniProt P18627). Put plainly: FACS, LAG-3Ig-Alexa 488 (1 µg/ml) with antibody 0 ng/ml (no-antibody value), bound to Raji (MHC class II+) cells.
Test [31] deals with T1, human LAG-3 protein (Lymphocyte activation gene-3) on the cell surface (human, UniProt P18627 23-525).
T1 construct: also called CD223; CHO LAG-3+
T1 sequence: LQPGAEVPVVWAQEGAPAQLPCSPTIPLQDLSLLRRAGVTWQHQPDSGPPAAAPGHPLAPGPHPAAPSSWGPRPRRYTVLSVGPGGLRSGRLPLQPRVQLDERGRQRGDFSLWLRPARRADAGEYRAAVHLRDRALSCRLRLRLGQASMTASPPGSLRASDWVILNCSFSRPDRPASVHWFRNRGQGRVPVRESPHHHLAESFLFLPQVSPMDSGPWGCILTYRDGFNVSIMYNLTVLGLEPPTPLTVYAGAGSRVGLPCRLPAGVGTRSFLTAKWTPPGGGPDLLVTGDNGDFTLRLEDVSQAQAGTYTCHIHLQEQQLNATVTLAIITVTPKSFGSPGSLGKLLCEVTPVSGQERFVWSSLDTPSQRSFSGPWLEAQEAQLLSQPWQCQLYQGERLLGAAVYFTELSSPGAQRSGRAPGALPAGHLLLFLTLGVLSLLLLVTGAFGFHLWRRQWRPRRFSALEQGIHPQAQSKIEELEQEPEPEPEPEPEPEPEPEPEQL
Put plainly: flow cytometry on CD8+ cells of SEB-stimulated PBMCs, mean of three donors. The protocol:
(§1) LAG-3⁺-transfected CHO cells, or SEB-stimulated PBMCs from a healthy donor were incubated with anti-LAG-3 monoclonal antibody, or an isotype control (mIgG1) for 30 minutes in PBS, BSA 0.5%, Azide 0.1% at 4° C. […] The secondary antibody was washed away, and the CHO cells were directly analyzed by flow cytometry. The PBMCs were phenotyped using CD4-PE-Cy7 and CD8-APC-Cy7.

The target in test [32] is T1, human LAG-3 protein (Lymphocyte …). The test is described as follows: flow cytometry on LAG-3-expressing CHO cells, four independent experiments; reference 17B4. The protocol: as §1
For test [33] the target is unchanged. The test is described as follows: flow cytometry on CD8+ cells of SEB-stimulated PBMCs, three donors; reference 17B4. The protocol: as §1
Test [34] shares this target. Put plainly: flow cytometry on CD4+ cells of SEB-stimulated PBMCs (Donor 1), from Table 13. The procedure: as §1
In test [35] the target is T2, IMP321 (recombinant soluble human LAG-3Ig fusion protein) (human, UniProt P18627 23-450).
T2 sequence (looked up): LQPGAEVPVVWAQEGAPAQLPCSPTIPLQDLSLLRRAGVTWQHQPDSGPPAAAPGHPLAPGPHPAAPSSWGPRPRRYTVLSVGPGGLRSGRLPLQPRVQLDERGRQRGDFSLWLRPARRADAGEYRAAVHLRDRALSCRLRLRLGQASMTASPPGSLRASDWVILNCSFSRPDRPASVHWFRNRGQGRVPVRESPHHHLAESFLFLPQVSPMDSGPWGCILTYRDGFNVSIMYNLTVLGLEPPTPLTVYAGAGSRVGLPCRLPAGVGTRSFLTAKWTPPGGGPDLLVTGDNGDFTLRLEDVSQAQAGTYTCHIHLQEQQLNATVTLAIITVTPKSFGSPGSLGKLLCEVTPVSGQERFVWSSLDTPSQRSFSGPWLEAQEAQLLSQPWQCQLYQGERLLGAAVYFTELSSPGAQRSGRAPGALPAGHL
The test is described as follows: cell-based or functional assay.

Test [36] has as its target T1, human LAG-3 protein (Lymphocyte …). The test is described as follows: flow cytometry on CD4+ cells of SEB-stimulated PBMCs, three donors; reference 17B4. The procedure:
as §1

Test [37] has the same target. Put plainly: flow cytometry on CD4+ cells of SEB-stimulated PBMCs, mean of three donors. The procedure: as §1

With isotype control antibody (mIgG1), in [1], the [CCL4] in THP-1 monocytic cells supernatant; IMP321 20 ng/ml pre-incubated with antibody 2 ng/ml was 2050 pg/mL. Besides, in test [1], the [CCL4] in THP-1 monocytic cells supernatant; IMP321 20 ng/ml pre-incubated with antibody 20 ng/ml amounted to 2140 pg/mL. For the same molecule, the [CCL4] in THP-1 monocytic cells supernatant; IMP321 20 ng/ml pre-incubated with antibody 200 ng/ml in test [1] is 2220 pg/mL. Moreover, the [CCL4] in THP-1 monocytic cells supernatant; IMP321 20 ng/ml pre-incubated with antibody 2000 ng/ml in test [1] was determined as 2260 pg/mL. The [CCL4] in THP-1 monocytic cells supernatant; IMP321 20 ng/ml pre-incubated with antibody 20000 ng/ml in test [1] was 2900 pg/mL. Besides, the [CCL4] in THP-1 monocytic cells supernatant; IMP321 20 ng/ml, antibody 0 ng/ml (no-antibody value) in test [1] was 2110 pg/mL. Besides, the MFI turned out to be 116 MFI in test [2]; 106 MFI in test [3]; 110 MFI in test [4]; 120 MFI in test [5]; 110 MFI in [6]; 251 MFI in [7]. The MFI in [8] is 116 MFI; in test [9], 127 MFI; in test [10], 109 MFI; in test [11], 113 MFI; in test [13] it was 108 MFI; in test [14], 137 MFI. The MFI in [15] was 168 MFI; in test [16], 140 MFI; in test [18], 156 MFI; in [19] it was 106 MFI; in [23] it was 440 MFI; in [24] it was 112 MFI. Further, the MFI in [26] stood at 116 MFI; in test [27], 115 MFI; in test [28], 112 MFI; in test [29], 114 MFI. Moreover, the MFI of sLAG-3Ig-Alexa 488 in test [12] was determined as 254 MFI; in test [17] it was 328 MFI; in test [20] it was 324 MFI; in [21] it was 361 MFI; in test [22], 373 MFI; in test [25], 359 MFI. For the same molecule, in test [30], the MFI of sLAG-3Ig-Alexa 488 stood at 284 MFI.

B1: mouse monoclonal anti-LAG-3 antibody 34F4 (antibody, V domains shown)
VH: QVTLKESGPGILQPSQTLSLTCSFSGFSLNTSGMGVGWIRQPSGKGLEWLTHIWWDDVKRYNPALKSRLTISKDTSSSQVFLKIASVDTADTATYYCARIEGDTYYDYYFDYWGQGVTLTVSS
VL: DIVMTQSHKLMSTSVGDGLSITCKASQDVSIAVVWYQQKPGQSPKLLIYSASFRYTGVPDRFTGSGSGTDFTFTISSVQAEDLAVYYCQQHYSIPWTFGGGTKLEIK
notes: Whole mouse monoclonal antibody from a hybridoma; mIgG1 was used as its isotype control
Regarding B1, the concentration for a half-maximal effect (EC50) in test [31] is 0.5 nM; in test [34], 0.1 nM; in [37], 0.2 nM. The “ratio of mean EC50 against 17B4” value in test [32] was found to be 1.6 times; in [33], 2.5 times; in [36], 3.8 times. For the same molecule, the “percentage of inhibition of CD8+ T cell proliferation; Donor #1, 34F4 1000 ng/ml neutralised with a 10-fold excess of IMP321” value in test [35] came to 0%. The “percentage of inhibition of CD8+ T cell proliferation; Donor #2, 34F4 1000 ng/ml neutralised with a 10-fold excess of IMP321” value in [35] stood at 41%.
